Holding throughout (conditions): remark: other sources report otherwise
Assay [1] addresses recombinant soluble homotrimeric HA of A/Hong Kong/2108/03 (H9N2) (Influenza A virus A/HK/2108/2003(H9N2)). Description: trimeric HA microarray, transfection supernatant set 2.
Assay [2] has as its target T1, recombinant soluble homotrimeric HA of A/swine/Ontario/01911-2/99 (H4N6) (Influenza A virus A/Swine/Ontario/01911-2/99 (H4N6)). The description is as above.
In assay [3] the target is T2, recombinant soluble homotrimeric HA of A/Wisconsin/67/05 (H3N2) (Influenza A virus A/Wisconsin/67/2005(H3N2)). Described as above.
In assay [4] the target is T3, recombinant soluble homotrimeric HA of A/northern shoveler/California/HKWF115/07 (H6) (Influenza A virus A/northern shoveler/California/HKWF115/2007(H6N1)). Described as above.
Assay [5] concerns the target T4, recombinant soluble homotrimeric HA of A/duck/Yangzhou/02/05 (H8N4) (Influenza A virus A/duck/Yangzhou/02/2005(H8N4)). Described as above.
Assay [6] addresses T5, recombinant soluble homotrimeric HA of A/chicken/Vietnam/NCVD-016/08 (H5N1) (Influenza A virus A/chicken/Vietnam/NCVD-016/2008(H5N1)). Put plainly: trimeric HA microarray, transfection supernatant set 3.
Assay [7] concerns the target recombinant soluble homotrimeric HA of A/California/4/09 (H1N1) (Influenza A virus A/California/04/2009(H1N1)). The description is as above.
Assay [8] deals with recombinant soluble homotrimeric HA of A/Egypt/3300-NAMRU3/08 (H5N1) (Influenza A virus A/Egypt/3300-NAMRU3/2008(H5N1)). Described as above.
In assay [9] the target is recombinant soluble homotrimeric HA of A/Anhui/1/05 (H5N1) (Influenza A virus A/Anhui/1/2005(H5N1)). Described as above.
In assay [10] the target is T1, recombinant soluble homotrimeric HA of …. The description is as above.
Assay [11] has as its target T2, recombinant soluble homotrimeric HA of …. The assay is described as above.
The target of assay [12] is recombinant soluble homotrimeric HA of A/Vietnam/1203/04 (H5N1) (Influenza A virus A/VietNam/1203/2004(H5N1)). Described as above.
Assay [13] has as its target T3, recombinant soluble homotrimeric HA of …. Described as above.
Assay [14] deals with T6, recombinant soluble homotrimeric HA of A/Japan/305/57 (H2N2) (Influenza A virus A/Japan/305/1957(H2N2)). The description is as above.
In assay [15] the target is recombinant soluble homotrimeric HA of A/Netherlands/219/03 (H7N7) (Influenza A virus A/Netherlands/219/03(H7N7)). The description is as above.
Assay [16] addresses recombinant soluble homotrimeric HA of A/South Carolina/1/18 (H1N1) (Influenza A virus A/South Carolina/1/18 (H1N1)). The description is as above.
For assay [17], the target named is T4, recombinant soluble homotrimeric HA of …. Described as above.
Assay [18] addresses T7, recombinant soluble homotrimeric HA of A/Solomon Islands/3/06 (H1N1) (Influenza A virus A/Solomon Islands/3/2006(H1N1)). The description is as above.
Assay [19] has as its target recombinant soluble homotrimeric HA of A/Indonesia/5/05 (H5N1) (Influenza A virus A/Indonesia/5/2005(H5N1)). Described as above.
In assay [20] the target is T5, recombinant soluble homotrimeric HA of …. Description: trimeric HA microarray, transfection supernatant set 4.
The target in assay [21] is T6, recombinant soluble homotrimeric HA of …. Described as above.
Assay [22] addresses T7, recombinant soluble homotrimeric HA of …. The assay is described as above.
Assay [23] addresses recombinant soluble homotrimeric HA, A/swine/Ontario/01911-2/99 H4N6 (Influenza A virus A/Swine/Ontario/01911-2/99 (H4N6)). Description: microarray, transfection SN IgG, trimeric HA.
Assay [24] concerns the target recombinant soluble homotrimeric HA, A/Netherlands/219/03 H7N7 (Influenza A virus A/Netherlands/219/03(H7N7)). Put plainly: microarray, transfection SN IgG, trimeric HA.
The target of assay [25] is recombinant soluble homotrimeric HA of A/Hong Kong/1073/99 (H9N2) (Influenza A virus A/Hong Kong/1073/99 (H9N2)). Put plainly: trimeric HA microarray, transfection supernatant set 2.

Here are results for seven molecules from patent publication US20150086555A1.

B1: TCN-527 (5086_C06) (antibody, V domains shown)
VH: QVQLQESGPGLVKPSETLSLNCAVSGGSISNYYWSWIRQPPGKGLEWIGYISYNGRPKYNPSLTSRVTISVDTSKDQFSLELRSVTAADTALYYCARETRFGELLSPYDAFEIWGQGTMVTVSS
VL: DIQMTQSPSSLSASVGDRVTMTCRASQNIRSYLNWYQQRPGTAPKLLIYAASTLHSGVPSRFSGGGSGTDFTLTINNLQPEDFASYYCQQSYDNPQTFGQGTKVEIK
Take B1: the Trimeric HA Binding: RLU in [1] was found to be 25500 RLU; in assay [2], 30100 RLU; in assay [3] it was 35800 RLU; in assay [4], 19300 RLU; in assay [5], 17900 RLU.

B2: TCN-530 (5248_H10a) (antibody, V domains shown)
VH: QVQLVQSGAEVRKPGSSVKVSCKASGGPFMSYAIGWVRQAPGQGLEWMGGINPVFGRPHYAQKFQGRVTIATDDSTKTSYMELSSLTSEDTGMYYCASRYSRSSPGTFESWGQGTLVTVSS
VL: EIVMTQFPATLSVSPGERVTLSCRASQSVSNNLAWYQQKPGQPPRLLIYDASTRATGVPAKFSGTGSGTEFTLSISSLQSEDFAVYYCQQYHNWPPSYSFGLGTKLEIK
On to B2, for which the Trimeric HA Binding: RLU in assay [6] stood at 18000 RLU; in [7], 21200 RLU; in [8], 25500 RLU; in assay [9], 97 RLU; in assay [10] it was 123 RLU; in assay [11], 3050 RLU. The Trimeric HA Binding: RLU in [12] came out at 25200 RLU; in assay [13], 23500 RLU; in [14], 5170 RLU; in assay [15] it was 118 RLU; in assay [16], 17200 RLU; in assay [17], 227 RLU. Further, the Trimeric HA Binding: RLU in assay [18] worked out at 13800 RLU; in assay [19], 25500 RLU.

B3: TCN-535 (5246_P19) (antibody, V domains shown)
VH: QVQLVQSGSEVKKPGTSVKVSCTASGSVFTNYGISWVRQAPGQGLEWMGGIIPLFGAAKYAQKFQGRVTITADESTKTVYMELSRLTSKDTAIYFCAKAPRVYEYYFDQWGQGTPVTVSS
VL: EIVLTQSPGTLSLSPGERATLSCRASQSVSSSQLAWYQQKPGQAPRLIIYGASTRATGIPDRFSGSGSGTDFTLTIGRLEPEDFAVFFCQQYSTSPPTFGQGTKVDFK
For B3, the Trimeric HA Binding: RLU in assay [20] stood at 20900 RLU; in [21], 21500 RLU; in [22], 836 RLU.

B4: TCN-528 (5087_P17) (antibody, V domains shown)
VH: QVQLVQSGSEVKKPGASVKVSCKASGYTFTNYDINWIRQAPGQGLEWMGWINPNSGTTGSAQRFQGRVTITVDTSITTVYMELSSLRSDDTAIYYCARGRELLRLQHFLTDSQSERRDCFDPWGQGTLVTVSS
VL: DIQMTQSPSSLSASVGDRVTITCRANQDIGIYLNWYQQNPGKVPKLLLHGASSLQGGVPSRFSASGSGTDFTLTIHSLQPEDLATYYCQQSRRLPYTFGQGTRVELK
Consider B4, for which the Trimeric HA Binding: RLU in assay [1] is 33600 RLU; in [2], 49200 RLU; in [3] it was 46000 RLU; in assay [4], 28400 RLU; in assay [5] it was 19800 RLU.

B5: TCN-504 (3251_K17) (antibody, V domains shown)
VH: QVQLQESGPGLVKPSETLSLTCAVSGVSISNIDFYWGWIRQPPGKGLEWIGNIYYTGITFYNPSLSSRVAISIDTSKNQFSLTLTSVTAADTAMYYCARHYGDSEAINDAFDIWGQGTMLTVSS
VL: EIVMTQSPATLSVSPGERATLSCRASQSVGNSLAWYQQRPGQAPRLLIYGASTRATGIPPRFSGSGSGTEFTLTISSLQTEDFAVYYCQQYINWRPLSFGGGTKVEIK
As for B5, the Trimeric HA Binding: RLU in assay [6] amounted to 10300 RLU; in [7] it was 18600 RLU; in [8], 18000 RLU; in assay [9], 30000 RLU; in [10], 34500 RLU; in assay [11], 21400 RLU. Also, the Trimeric HA Binding: RLU in [12] came out at 13300 RLU; in assay [14], 36000 RLU; in [15], 19600 RLU; in assay [16], 27600 RLU; in assay [17], 19600 RLU; in assay [18], 32700 RLU. Also, the Trimeric HA Binding: RLU came to 18600 RLU in assay [19]; 32500 RLU in [2]; 21600 RLU in [3]; 17800 RLU in assay [5]; 19200 RLU in [20]; 19600 RLU in [21]. The Trimeric HA Binding: RLU in assay [22] is 14600 RLU; in [23], 54800 RLU; in assay [24], 30600 RLU.

B6: TCN-522 (3212_I12) (antibody, V domains shown)
VH: QVQLQQWGAGLLKPSETLSLTCTVSGGSLTDYSWNWIRQPPGKGLEWIGDTLHNGYTNYNPSLRGRVSISIDTSKNQVSLRLTSVTAADTALYYCARGSGGYGGFDYFGKLRTWDFWGQGTLVTVSS
VL: DIQLTQSPSSLSASVGDRVTITCRASQGIRNDLGWYQQKPGNAPKRLIFGASSLQSGVPSRFSGSGSGTEFTLTISSLQPEDFATYYCLQHNSYPYTFGQGTKLEIK
Turning to B6, the Trimeric HA Binding: RLU is 203 RLU in assay [1], 54400 RLU in [4], 1650 RLU in assay [5] and 11800 RLU in assay [25].

B7: TCN-563 (5237_B21) (antibody, V domains shown)
VH: QVQLAQSGAEVKRPGSSVKVSCTASGGIFRKNAISWVRQAPGQGLEWMGGIIAVFNTANYAQKFQGRVKITADESGNTAYMELSSLRSDDTAVYYCASHPKYFYGSGSYPDFWGQGTLVTVSS
VL: QSALTQPRSVSGSPGQSVTISCTGSSSDVGASNSVSWYQQHPGKAPKLVIYDVTERPSGVPHRFSGSKSGNTASLTVSGLQPEDEADYFCCAYGGKYLVVFGGGTKVTVL
For the molecule B7, the Trimeric HA Binding: RLU in assay [1] amounted to 364 RLU; in assay [2] it was 2250 RLU; in [3], 23700 RLU; in assay [4], 21900 RLU; in assay [5], 6280 RLU; in [25] it was 49200 RLU.
